Reference: patent EP4682166A1 (Guangzhou Enmai Biotechnology Co., Ltd, dated 2026)

Legend:
[1] = target: T1, human NMI (N-myc Interacting protein), recombinant protein (human, UniProt Q13287 1-307, limits assumed); assay: ELISA, binding to hNMI
T1 construct: Gene ID: 9111; also called hNMI; antigen
T1 sequence (looked up): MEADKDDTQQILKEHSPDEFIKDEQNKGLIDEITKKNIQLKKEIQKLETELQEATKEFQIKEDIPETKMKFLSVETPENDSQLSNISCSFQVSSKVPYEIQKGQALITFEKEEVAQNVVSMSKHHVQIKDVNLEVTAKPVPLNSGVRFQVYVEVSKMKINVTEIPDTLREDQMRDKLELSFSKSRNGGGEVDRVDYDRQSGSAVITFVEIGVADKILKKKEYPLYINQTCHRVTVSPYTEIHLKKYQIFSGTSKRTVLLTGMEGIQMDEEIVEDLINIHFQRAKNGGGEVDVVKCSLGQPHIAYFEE

[2] = target: T2, natural NMI in joint fluid of an arthritic patient (human) (UniProt Q13287); assay: sandwich ELISA; detection 94C4-1-biotin 0.5µg/mL; joint fluid diluted 1/2
T2 sequence (looked up): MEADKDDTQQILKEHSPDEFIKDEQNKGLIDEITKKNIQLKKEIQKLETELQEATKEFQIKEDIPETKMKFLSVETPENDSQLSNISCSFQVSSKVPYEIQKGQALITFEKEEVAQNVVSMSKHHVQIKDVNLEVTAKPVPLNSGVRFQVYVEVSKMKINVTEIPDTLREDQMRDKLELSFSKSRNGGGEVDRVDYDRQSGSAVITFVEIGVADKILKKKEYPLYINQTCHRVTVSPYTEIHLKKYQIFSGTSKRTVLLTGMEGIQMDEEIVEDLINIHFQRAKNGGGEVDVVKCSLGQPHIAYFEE

[3] = target: T2, natural NMI in joint fluid of an arthritic patient (human); assay: sandwich ELISA; detection 94C4-1-biotin 0.5µg/mL; joint fluid stock solution
[4] = target: T3, NMI-flag overexpressed protein (293T cells transfected with the hNMI-flag plasmid) (human) (UniProt Q13287); assay: sandwich ELISA; detection 94C4-1-biotin; cell lysates of NMI-flag 293T, replicate 1
T3 sequence (looked up): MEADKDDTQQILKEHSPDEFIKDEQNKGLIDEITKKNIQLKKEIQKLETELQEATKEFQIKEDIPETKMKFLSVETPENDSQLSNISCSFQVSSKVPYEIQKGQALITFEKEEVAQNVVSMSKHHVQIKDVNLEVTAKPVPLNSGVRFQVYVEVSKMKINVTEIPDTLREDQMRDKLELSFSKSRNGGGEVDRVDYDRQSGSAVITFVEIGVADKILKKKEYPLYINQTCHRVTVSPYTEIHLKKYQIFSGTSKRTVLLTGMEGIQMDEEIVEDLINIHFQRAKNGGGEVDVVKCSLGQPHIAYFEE

[5] = target: T4, human NMI (N-myc Interacting protein) (human) (UniProt Q13287); assay: magnetic-bead chemiluminescent sandwich; capture 98G10 beads (0.5 mg 98G10), detection acridinium-B-8; hNMI 50 pg/ml
T4 sequence (looked up): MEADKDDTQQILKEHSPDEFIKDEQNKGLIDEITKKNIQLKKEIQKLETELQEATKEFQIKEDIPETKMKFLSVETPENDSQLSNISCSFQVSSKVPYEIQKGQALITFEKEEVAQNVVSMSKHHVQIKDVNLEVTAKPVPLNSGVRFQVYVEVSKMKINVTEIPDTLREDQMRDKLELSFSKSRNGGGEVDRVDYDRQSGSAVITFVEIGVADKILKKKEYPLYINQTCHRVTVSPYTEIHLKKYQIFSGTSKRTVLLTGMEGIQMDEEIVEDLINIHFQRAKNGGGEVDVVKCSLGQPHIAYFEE

[6] = target: T4, human NMI (N-myc Interacting protein) (human); assay: magnetic-bead chemiluminescent sandwich; capture 98G10 beads (1.0 mg 98G10), detection acridinium-B-8; hNMI 50 pg/ml
[7] = target: T4, human NMI (N-myc Interacting protein) (human); assay: magnetic-bead chemiluminescent sandwich; capture 98G10 beads (0.5 mg 98G10), detection acridinium-B-8; hNMI 100 pg/ml
[8] = target: T4, human NMI (N-myc Interacting protein) (human); assay: magnetic-bead chemiluminescent sandwich; capture 98G10 beads (1.0 mg 98G10), detection acridinium-B-8; hNMI 1000 pg/ml
[9] = target: T4, human NMI (N-myc Interacting protein) (human); assay: magnetic-bead chemiluminescent sandwich; capture 98G10 beads, detection acridinium-B-8 (1.0 mg B-8 labelled); hNMI 50 pg/mL
[10] = target: T4, human NMI (N-myc Interacting protein) (human); assay: magnetic-bead chemiluminescent sandwich; capture 98G10 beads, detection acridinium-B-8 (2.0 mg B-8 labelled); hNMI 50 pg/mL
[11] = target: T4, human NMI (N-myc Interacting protein) (human); assay: magnetic-bead chemiluminescent sandwich; capture 98G10 beads, detection acridinium-B-8 (1.0 mg B-8 labelled); hNMI 400 pg/mL
[12] = target: T4, human NMI (N-myc Interacting protein) (human); assay: magnetic-bead chemiluminescent sandwich; capture 98G10 beads, detection acridinium-B-8 (2.0 mg B-8 labelled); hNMI 100 pg/mL
[13] = target: T4, human NMI (N-myc Interacting protein) (human); assay: magnetic-bead chemiluminescent sandwich; capture 98G10 beads, detection acridinium-B-8 (1.0 mg B-8 labelled); hNMI 2000 pg/mL
[14] = target: T4, human NMI (N-myc Interacting protein) (human); assay: magnetic-bead chemiluminescent sandwich; capture 98G10 beads, detection acridinium-B-8 (2.0 mg B-8 labelled); hNMI 1000 pg/mL
[15] = target: T4, human NMI (N-myc Interacting protein) (human); assay: magnetic-bead chemiluminescent sandwich, kit of Example 8-1; capture 98G10 beads, detection acridinium-B-8; series 1, hNMI 50 pg/mL
[16] = target: T4, human NMI (N-myc Interacting protein) (human); assay: magnetic-bead chemiluminescent sandwich, kit of Example 8-1; capture 98G10 beads, detection acridinium-B-8; series 2, hNMI 50 pg/mL
[17] = target: T4, human NMI (N-myc Interacting protein) (human); assay: magnetic-bead chemiluminescent sandwich, kit of Example 8-1; capture 98G10 beads, detection acridinium-B-8; series 3, hNMI 50 pg/mL
[18] = target: T4, human NMI (N-myc Interacting protein) (human); assay: magnetic-bead chemiluminescent sandwich, kit of Example 8-1; capture 98G10 beads, detection acridinium-B-8; series 2, hNMI 900 pg/mL
[19] = target: T4, human NMI (N-myc Interacting protein) (human); assay: magnetic-bead chemiluminescent sandwich, kit of Example 8-1; capture 98G10 beads, detection acridinium-B-8; series 3, hNMI 200 pg/mL
[20] = target: T4, human NMI (N-myc Interacting protein) (human); assay: magnetic-bead chemiluminescent sandwich, kit of Example 8-1; capture 98G10 beads, detection acridinium-B-8; series 1, hNMI 1000 pg/mL
[21] = target: T4, human NMI (N-myc Interacting protein) (human); assay: magnetic-bead chemiluminescent sandwich, kit of Example 8-1; capture 98G10 beads, detection acridinium-B-8; series 1, hNMI 4000 pg/mL
[22] = target: T4, human NMI (N-myc Interacting protein) (human); assay: magnetic-bead chemiluminescent sandwich, kit of Example 8-1; capture 98G10 beads, detection acridinium-B-8; series 1, hNMI 8000 pg/mL
[23] = target: T4, human NMI (N-myc Interacting protein) (human); assay: magnetic-bead chemiluminescent sandwich, kit of Example 8-1; capture 98G10 beads, detection acridinium-B-8; series 2, hNMI 1800 pg/mL
[24] = target: T4, human NMI (N-myc Interacting protein) (human); assay: magnetic-bead chemiluminescent sandwich, kit of Example 8-1; capture 98G10 beads, detection acridinium-B-8; series 3, hNMI 4000 pg/mL
[25] = target: T4, human NMI (N-myc Interacting protein) (human); assay: magnetic-bead chemiluminescent sandwich, kit of Example 8-1; capture 98G10 beads, detection acridinium-B-8; series 1, hNMI 14000 pg/mL

B1: monoclonal antibody B-8 (antibody, V domains shown)
VH: QSLEESGGDLVKPGASLTLTCTASGFSFSSSYYMCWVRQAPGKGLEWIACIYAGSSGSTYYASWAKGRFTISKTSSTTVTLQMTSLTAADTATYFCAREYSYDDYGDFWGFNLWGPGTLVTVSS
VL: ALVMTQTPSSVSAAVGGTVTINCQASQNIYTNLAWYQQKPGQPPKLLIYGASNLESGVPSRFKGSGSGTEYTLTISDLECDDAATYYCQSSLYSRIADRANAFGGGTEVVVK
notes: Rabbit monoclonal antibody; also called B8-1
- EC50 [1]: 0.309 nM
- OD450 [2]: 0.128 OD450
- OD450 [3]: 0.221 OD450
- OD450 [4]: 3.03 OD450

B2: acridinium ester-labeled monoclonal antibody B-8 (antibody, V domains shown)
VH: QSLEESGGDLVKPGASLTLTCTASGFSFSSSYYMCWVRQAPGKGLEWIACIYAGSSGSTYYASWAKGRFTISKTSSTTVTLQMTSLTAADTATYFCAREYSYDDYGDFWGFNLWGPGTLVTVSS
VL: ALVMTQTPSSVSAAVGGTVTINCQASQNIYTNLAWYQQKPGQPPKLLIYGASNLESGVPSRFKGSGSGTEYTLTISDLECDDAATYYCQSSLYSRIADRANAFGGGTEVVVK
modifications: acridinium ester label on the antibody, site not stated
- Signal value [5]: 4560
- Signal value [6]: 11100
- Signal value [7]: 9490
- Signal value [8]: 201000
- Signal value [9]: 4560
- Signal value [10]: 6220
- Signal value [11]: 39900
- Signal value [12]: 11900
- Signal value [13]: 204000
- Signal value [14]: 116000
- Signal value [15]: 2010
- Signal value [16]: 6180
- Signal value [17]: 6120
- Signal value [18]: 98500
- Signal value [19]: 25700
- Signal value [20]: 57600
- Signal value [21]: 258000
- Signal value [22]: 587000
- Signal value [23]: 181000
- Signal value [24]: 572000
- Signal value [25]: 1.05e+06
